The values below come from article doi:10.1101/798769.

For the test, the target named is NANP 5.5-mer peptide, NP(NANP)5 (Plasmodium falciparum). Kind of test: SPR. For orientation: In SPR one partner is held on a chip, and binding of the other changes the refractive index at the surface.

The substance “mAb CIS43 (recombinant human IgG1, kappa) (antibody)” displayed a fold lower affinity (reference not clear: its own NPDP affinity or mAb 4493) of 100 fold.
